Experimental data reported in patent publication US20050193443A1.

Molecular target: maize VIVIPAROUS-1 (VP1) B3-domain transcription factor (maize) (UniProt P26307)
Experiment: cell-based or functional assay

UniProt P26307, sequence (P26307 whole entry): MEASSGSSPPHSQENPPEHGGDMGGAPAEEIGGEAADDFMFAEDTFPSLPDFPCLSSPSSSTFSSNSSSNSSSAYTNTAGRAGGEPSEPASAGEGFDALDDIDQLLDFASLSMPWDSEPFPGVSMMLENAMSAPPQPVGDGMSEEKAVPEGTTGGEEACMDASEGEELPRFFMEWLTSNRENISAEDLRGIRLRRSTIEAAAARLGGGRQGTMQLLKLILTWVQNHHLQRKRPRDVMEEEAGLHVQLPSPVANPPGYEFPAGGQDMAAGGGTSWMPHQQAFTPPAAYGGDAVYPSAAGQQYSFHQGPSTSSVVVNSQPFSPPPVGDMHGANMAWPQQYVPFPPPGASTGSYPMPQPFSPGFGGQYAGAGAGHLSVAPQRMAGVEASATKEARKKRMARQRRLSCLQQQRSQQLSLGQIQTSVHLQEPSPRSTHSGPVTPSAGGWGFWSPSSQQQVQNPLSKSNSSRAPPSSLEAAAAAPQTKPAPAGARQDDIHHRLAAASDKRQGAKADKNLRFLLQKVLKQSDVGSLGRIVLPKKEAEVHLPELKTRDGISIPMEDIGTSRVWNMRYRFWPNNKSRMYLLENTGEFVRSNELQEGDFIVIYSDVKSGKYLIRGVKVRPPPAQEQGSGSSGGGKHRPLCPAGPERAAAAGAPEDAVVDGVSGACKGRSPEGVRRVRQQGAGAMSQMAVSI

ABA-inducible Em-GUS reporter gene expression, transiently co-transformed rice protoplasts; synergy relative to that of ABI5 with VP1: 2 fold
Substance: ABF3 (ABA-Response Element-Binding Factor 3) (from UniProt Q9M7Q3 1-454)
